Experimental data published in patent US20260207766A1 (Bristol-Myers Squibb, published 2026).

T1: full-length human CEACAM5 (recombinant, internally generated) (human, UniProt P06731 35-685, limits assumed)
T1 construct: Printed only as 'full-length'; also called Full-length huCEACAM5; biotinylated human CEACAM5
T1 sequence: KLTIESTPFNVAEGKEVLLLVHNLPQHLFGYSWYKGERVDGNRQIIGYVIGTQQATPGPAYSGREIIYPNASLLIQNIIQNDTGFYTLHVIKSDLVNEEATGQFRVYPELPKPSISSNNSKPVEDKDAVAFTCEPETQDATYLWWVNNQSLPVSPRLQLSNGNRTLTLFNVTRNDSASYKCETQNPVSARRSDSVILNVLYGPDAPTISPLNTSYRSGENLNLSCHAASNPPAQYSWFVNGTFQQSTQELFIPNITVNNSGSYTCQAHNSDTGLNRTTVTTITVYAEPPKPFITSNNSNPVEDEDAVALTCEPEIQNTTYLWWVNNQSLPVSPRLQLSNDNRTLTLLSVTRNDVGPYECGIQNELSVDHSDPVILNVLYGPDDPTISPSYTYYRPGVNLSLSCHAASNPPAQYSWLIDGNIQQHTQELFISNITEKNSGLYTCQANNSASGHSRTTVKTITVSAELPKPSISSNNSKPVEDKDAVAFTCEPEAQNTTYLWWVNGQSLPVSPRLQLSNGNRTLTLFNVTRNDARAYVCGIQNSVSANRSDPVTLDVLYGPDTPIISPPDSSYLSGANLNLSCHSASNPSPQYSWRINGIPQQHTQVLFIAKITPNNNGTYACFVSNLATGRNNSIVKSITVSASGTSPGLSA

T2: human CEACAM5 on cells (human, UniProt P06731 35-685)
T2 sequence: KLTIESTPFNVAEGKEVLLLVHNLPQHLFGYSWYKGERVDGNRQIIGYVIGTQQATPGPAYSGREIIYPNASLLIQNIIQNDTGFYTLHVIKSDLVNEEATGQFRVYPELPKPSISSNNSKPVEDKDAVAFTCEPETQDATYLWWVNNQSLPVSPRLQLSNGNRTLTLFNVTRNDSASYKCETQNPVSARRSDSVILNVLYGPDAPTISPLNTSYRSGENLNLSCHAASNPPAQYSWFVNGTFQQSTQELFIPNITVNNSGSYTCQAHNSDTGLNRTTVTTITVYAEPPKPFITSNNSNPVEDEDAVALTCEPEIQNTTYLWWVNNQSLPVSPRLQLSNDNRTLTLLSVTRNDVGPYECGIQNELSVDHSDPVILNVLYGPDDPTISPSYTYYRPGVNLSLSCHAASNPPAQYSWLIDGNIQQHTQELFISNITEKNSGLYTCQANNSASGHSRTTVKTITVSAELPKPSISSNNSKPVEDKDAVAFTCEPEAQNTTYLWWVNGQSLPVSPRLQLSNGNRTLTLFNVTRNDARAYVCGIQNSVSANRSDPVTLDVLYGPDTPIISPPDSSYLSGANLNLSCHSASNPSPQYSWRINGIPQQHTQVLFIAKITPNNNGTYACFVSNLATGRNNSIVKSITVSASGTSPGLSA


What was measured:
[1] = target: T1, full-length human CEACAM5 (recombinant, …); experiment: SPR Biacore, mAb captured on anti-human Fc, full-length antigen analyte, 1:1 fit
Source text: The BIACORE® instrument was primed with 1×HBSP+ running buffer (Cytiva catalog no. BR100671). The CM5 chip (Cytiva catalog no. 29149604) was equilibrated to room temperature, and the BIACORE® instrument was re-primed. A human antibody Fc capture kit (Cytiva catalog no. 29234600) was utilized for this analysis. The human antibody Fc capture reagent was immobilized to both flow cells in all 8 flow channels of the CM5 chip via amine-coupling using the following conditions. Immobilization was performed at a temperature of 25° C. The anti-human Fc capture reagent was diluted to a concentration of 25 μg/mL in acetate pH5 buffer. The chip surface was activated by injecting a mixture of 1-ethyl-3-(-3-dimethylaminopropyl) carbodiimide hydrochloride (EDC) and N-hydroxy succinimide (NHS) for 420 seconds at a rate of 10 microliters per minute (uL/min). A concentration (25 ug/mL) of anti-human Fc capture reagent was then injected on the surface for 420 seconds at a rate of 10 uL/min. The remaining chip surface was blocked by injecting ethanolamine for 420 seconds at a rate of 10 uL/min.
The SPR kinetics against full-length human and cyno CEACAM5 were set up as follows. The antibody capture was performed by diluting the antibodies to a concentration of 10 nM in HBSP+ buffer. The 10 nM mAbs were captured for 20 seconds at 5 uL/min to achieve capture levels of approximately 100 RU. […] The association rate was 180 seconds at 30 uL/min. The dissociation rate was 600 seconds at 30 uL/min. Regeneration was performed using two injections of 3M magnesium chloride MgCl₂ for 30 seconds at 30 uL/min. A data fit was performed using a 1:1 binding model with global Rmax. Rmax reflects the maximal response when all ligand is occupied.

[2] = target: T2, human CEACAM5 on cells; experiment: cell-based or functional assay

| Binder | Kd [1] [nM] | koff [1] [s⁻¹] | kon [1] [M⁻¹ s⁻¹] | Ls174T 5-day cytotoxicity (AUC) [2] | MKN45 5-day cytotoxicity (AUC) [2] |
| --- | --- | --- | --- | --- | --- |
| MBP005 (antibody, V domains shown) VH: QVQLVESGGGVVQPGRSLRLSCAASGIYFSSHGMHWVRQAPGKGLEWVTFISYDGSYKSYVDSVKGRFTISRDNSKNTLYLQMNSLRAEDTAVYYCATGLTGTGAFDIWGQGTMVTVSS VL: not shown | – | – | – | 964 | 2350 |
| MBP007 (antibody, IgG1, V domains shown) VH: QVQLVESGGGVVQPGRSLRLSCAASGIYFSSHGMHWVRQAPGKGLEWVTFISYDGSYKSYVDSVKGRFTISRDNSKNTLYLQMNSLRAEDTAVYYCATGLTGTGANDIWGQGTMVTVSS VL: EIVLTQSPGTLSLSPGERATLSCRASQSVSSSYLAWYQQKPGQAPRLLIYGASSRATGIPDRFSGSGSGTDFTLTISRLEPEDFAVYYCQQNKPSPYTFGQGTKLEIK | 21.5 | 0.00171 | 79600 | 834 | 2070 |

The remaining binders from weak to strong by Kd [1], led by results:

| Kd [1] [nM] | koff [1] [s⁻¹] | kon [1] [M⁻¹ s⁻¹] | Binder | Ls174T 5-day cytotoxicity (AUC) [2] | MKN45 5-day cytotoxicity (AUC) [2] |
| --- | --- | --- | --- | --- | --- |
| 20.4 | 0.00102 | 50000 | MBP010 (antibody, IgG1, V domains shown) VH: QVQLVESGGGVVQPGRSLRLSCAASGITFSSHGMHWVRQAPGKGLEWVTFISYDSSYKSYVDSVKGRFTISRDNSKNTLYLQMNSLRAEDTAVYYCATGLTGTGAFDIWGQGTMVTVSS VL: EIVLTQSPGTLSLSPGERATLSCRASQSVSSSYLAWYQQKPGQAPRLLIYGASSRATGIPDRFSGSGSGTDFTLTISRLEPEDFAVYYCQQNKRSPYTFGQGTKLEIK | 910 | 1360 |
| 6.03 | 0.000513 | 85100 | MBP006 (antibody, V domains shown) VH: QVQLVESGGGVVQPGRSLRLSCAASGITFSSHGMHWVRQAPGKGLEWVTFISYDGSYISYVDSVKGRFTISRDNSKNTLYLQMNSLRAEDTAVYYCATGLTGTGANDIWGQGTMVTVSS VL: not shown | 902 | 2440 |
| 5.91 | 0.000527 | 89200 | MBP008 (antibody, IgG1, V domains shown) VH: QVQLVESGGGVVQPGRSLRLSCAASGITFSSHGMHWVRQAPGKGLEWVTFISYDGSYKSYVDSVKGRFTISRDNSKNTLYLQMNSLRAEDTAVYYCATGLTGTNALDIWGQGTMVTVSS VL: not shown | 1140 | 2200 |
